Laboratory results taken from patent publication US20220098306A1 (published 2022).
Numbering of substitutions follows the chain as printed. Where two headings read alike, the source gives them in different places. One block for each binder: values may come before it.

Assays:
[1] = molecular target: T1, CD28 (antigen of the affinity determinations) (human, UniProt P10747 19-152); experiment: -; scFv VHVL, 1+1 Fab-scFv-Fc
[2] = molecular target: T1, CD28 (antigen of the affinity …); experiment: Octet; avid
[3] = molecular target: T2, mouse Fc fusion of B7H3, full extracellular V1C1-V2C2 domain (human, UniProt Q5ZPR3 29-466); experiment: Octet
T2 chain: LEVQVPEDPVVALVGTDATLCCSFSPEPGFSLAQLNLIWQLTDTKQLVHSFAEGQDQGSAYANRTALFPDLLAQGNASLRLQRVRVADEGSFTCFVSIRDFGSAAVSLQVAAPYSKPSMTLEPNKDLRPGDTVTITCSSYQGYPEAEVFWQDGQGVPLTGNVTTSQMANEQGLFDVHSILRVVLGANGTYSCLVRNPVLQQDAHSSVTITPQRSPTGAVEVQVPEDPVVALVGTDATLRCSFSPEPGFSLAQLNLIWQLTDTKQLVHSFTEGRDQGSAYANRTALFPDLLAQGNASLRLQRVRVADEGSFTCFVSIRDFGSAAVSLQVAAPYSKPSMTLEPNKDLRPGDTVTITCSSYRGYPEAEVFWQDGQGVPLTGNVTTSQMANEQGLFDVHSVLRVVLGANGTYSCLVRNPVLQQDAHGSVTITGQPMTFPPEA

huB7H3 (V1C1) = molecular target: T3, huB7H3 (V1C1); experiment: Octet
T3 chain: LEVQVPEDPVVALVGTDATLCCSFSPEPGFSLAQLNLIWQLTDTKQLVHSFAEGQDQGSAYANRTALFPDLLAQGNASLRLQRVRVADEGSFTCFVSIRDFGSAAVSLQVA

huB7H3 (V2C2) = molecular target: T4, huB7H3 (V2C2); experiment: Octet
T4 chain: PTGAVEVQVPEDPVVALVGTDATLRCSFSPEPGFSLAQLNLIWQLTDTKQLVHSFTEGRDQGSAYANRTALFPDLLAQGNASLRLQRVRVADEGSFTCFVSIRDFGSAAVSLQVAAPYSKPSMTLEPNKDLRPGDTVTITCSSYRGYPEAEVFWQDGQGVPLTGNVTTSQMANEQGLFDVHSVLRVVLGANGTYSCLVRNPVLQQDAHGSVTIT

[4] = molecular target: T1, CD28 (antigen of the affinity …)
[5] = molecular target: T1, CD28 (antigen of the affinity …); experiment: -; Fab, 2+1 CLC
[6] = molecular target: T5, B7H3 (antigen of the affinity statements) (human, UniProt Q5ZPR3 29-466); experiment: -; monovalent KD
T5 chain: T2 chain

CD28-Fc-His protein [7] = molecular target: T6, CD28-Fc-His protein (human, UniProt P10747 19-152); experiment: Octet; 1:1 Langmuir
CD28-Fc-His protein [8] = molecular target: T6, CD28-Fc-His protein; experiment: Octet; Steady State

- Kd (4F12_H2_L1.1): < 0.1 nM
B1: human B7H3 (V1C1-V2C2) (ligand)
chain: T2 chain

- Kd [4]: 230 nM
- Kd [5]: 232 nM
- Kd [6]: 7.6 nM
B6: XENP37808 (bispecific antibody)
heavy 1: EVQLLESGGGLVQPGGSLRLSCAASGFTFSSYYMSWVRQAPGKGLEWVSTISGSGDSTYYADSVKGRFTISRDNSKNTLYLQMNSLRAEDTAVYYCAKSGPGLRQVGFDYWGQGTLVTVSSASTKGPSVFPLAPSSKSTSGGTAALGCLVKDYFPEPVTVSWNSGALTSGVHTFPAVLQSSGLYSLSSVVTVPSSSLGTQTYICNVNHKPSDTKVDKKVEPKSCDKTHTCPPCPAPPVAGPSVFLFPPKPKDTLMISRTPEVTCVVVDVKHEDPEVKFNWYVDGVEVHNAKTKPREEEYNSTYRVVSVLTVLHQDWLNGKEYKCKVSNKALPAPIEKTISKAKGQPREPQVYTLPPSREEMTKNQVSLTCDVSGFYPSDIAVEWESDGQPENNYKTTPPVLDSDGSFFLYSKLTVDKSRWEQGDVFSCSVLHEALHSHYTQKSLSLSPGK
heavy 2: QVQLVQSGAEVKKPGASVKVSCKASGYIFTNNYMHWVRQAPGQGLEWMGIISPSVGRTAYAQKFQGRVTMTRDTSTSTVYMELSSLRSEDTAVYYCARGGGSSPRLDYWGQGTLVTVSSASTKGPSVFPLAPSSKSTSGGTAALGCLVKDYFPEPVTVSWNSGALTSGVHTFPAVLQSSGLYSLSSVVTVPSSSLGTQTYICNVNHKPSNTKVDKKVEPKSCGKPGSGKPGSQVQLVQSGAEVKKPGASVKVSCKASGYIFTNNYMHWVRQAPGQGLEWMGIISPSVGRTAYAQKFQGRVTMTRDTSTSTVYMELSSLRSEDTAVYYCARGGGSSPRLDYWGQGTLVTVSSASTKGPSVFPLAPSSKSTSGGTAALGCLVKDYFPEPVTVSWNSGALTSGVHTFPAVLQSSGLYSLSSVVTVPSSSLGTQTYICNVNHKPSNTKVDKKVEPKSCDKTHTCPPCPAPPVAGPSVFLFPPKPKDTLMISRTPEVTCVVVDVKHEDPEVKFNWYVDGVEVHNAKTKPREEQYNSTYRVVSVLTVLHQDWLNGKEYKCKVSNKALPAPIEKTISKAKGQPREPQVYTLPPSREQMTKNQVKLTCLVKGFYPSDIAVEWESNGQPENNYKTTPPVLDSDGSFFLYSKLTVDKSRWQQGNVFSCSVLHEALHSHYTQKSLSLSPGK
light: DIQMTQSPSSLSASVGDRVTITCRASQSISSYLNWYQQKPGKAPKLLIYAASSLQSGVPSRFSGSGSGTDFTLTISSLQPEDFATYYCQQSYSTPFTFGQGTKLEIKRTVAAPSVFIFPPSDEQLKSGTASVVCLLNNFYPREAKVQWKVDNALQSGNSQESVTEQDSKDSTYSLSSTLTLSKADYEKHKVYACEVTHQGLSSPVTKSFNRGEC

- Kd [3]: 4.3 nM
- Kd (huB7H3 (V1C1)): 4.4 nM
- Kd (huB7H3 (V2C2)): 6.4 nM
B9: XENP34728 (6A1) (antibody, V domains shown)
VH: EVQLLESGGGLVQPGGSLRLSCAASGFTFSNYYMAWVRQAPGKGLEWVSSISTGGGSTYYRDSVKGRFTISRDNSKSTLYLQMNSLRAEDTAVYYCTTDLSAIAATPFAYWGQGTLVTVSS
VL: DIQMTQSPSSLSASVGDRVTITCRASQNIYTSLAWYQQKPGKAPKLLIYNAHSLQTGIPSRFSGSGSGADFTLTISSLQPEDFATYFCQQYYSGLTFGSGTKLEIKR

The remaining lines, values behind:

B2: H1_L1.71 (antibody, V domains shown)
VH: EVQLLESGGGLVQPGGSLRLSCAASGFTFSSYAMSWVRQAPGKGLEWVSTISGSGDSTYYADSVKGRFTISRDNSKNTLYLQMNSLRAEDTAVYYCAKSGPGLRQVGFDYWGQGTLVTVSS
VL: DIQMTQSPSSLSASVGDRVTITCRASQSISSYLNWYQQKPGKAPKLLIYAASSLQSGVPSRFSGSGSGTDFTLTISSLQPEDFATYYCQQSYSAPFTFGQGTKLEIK
- Kd [1]: 180 nM

B3: XENP28428 (antibody, V domains shown)
VH: B2 VH
VL: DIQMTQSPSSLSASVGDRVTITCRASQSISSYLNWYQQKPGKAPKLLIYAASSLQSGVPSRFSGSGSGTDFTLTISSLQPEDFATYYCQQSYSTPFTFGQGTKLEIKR
- Kd [2]: 14.5 nM

B4: H1.1_L1.71 (antibody, V domains shown)
VH: B2 VH with A33Y
VL: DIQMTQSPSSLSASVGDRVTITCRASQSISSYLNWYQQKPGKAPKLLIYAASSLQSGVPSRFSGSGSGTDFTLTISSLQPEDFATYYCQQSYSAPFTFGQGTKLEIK
- Kd [1]: 91.6 nM

B5: XENP34717 (bispecific antibody)
heavy 1: B6 heavy 1 with G53E, L431M, S437N
heavy 2: QVQLVQSGAEVKKPGASVKVSCKASGYIFTNNYMHWVRQAPGQGLEWMGIISPSVGRTAYAQKFQGRVTMTRDTSTSTVYMELSSLRSEDTAVYYCARGGGSSPRLDYWGQGTLVTVSSASTKGPSVFPLAPSSKSTSGGTAALGCLVKDYFPEPVTVSWNSGALTSGVHTFPAVLQSSGLYSLSSVVTVPSSSLGTQTYICNVNHKPSNTKVDKKVEPKSCDKTHTCPPCPAPPVAGPSVFLFPPKPKDTLMISRTPEVTCVVVDVKHEDPEVKFNWYVDGVEVHNAKTKPREEQYNSTYRVVSVLTVLHQDWLNGKEYKCKVSNKALPAPIEKTISKAKGQPREPQVYTLPPSREQMTKNQVKLTCLVKGFYPSDIAVEWESNGQPENNYKTTPPVLDSDGSFFLYSKLTVDKSRWQQGNVFSCSVMHEALHNHYTQKSLSLSPGK
light: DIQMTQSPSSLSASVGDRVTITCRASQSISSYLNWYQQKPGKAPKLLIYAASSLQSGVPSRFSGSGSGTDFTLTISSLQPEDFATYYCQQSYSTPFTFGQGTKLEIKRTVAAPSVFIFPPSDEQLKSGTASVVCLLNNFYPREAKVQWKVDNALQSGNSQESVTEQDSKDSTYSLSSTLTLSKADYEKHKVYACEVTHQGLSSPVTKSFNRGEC
- Kd [3]: 16 nM
- Kd (huB7H3 (V1C1)): 21 nM
- Kd (huB7H3 (V2C2)): 21 nM

B7: XENP34339 (bispecific antibody)
heavy 1: B6 heavy 1 with G53E, L431M, S437N
heavy 2: B6 heavy 2 with L661M, S667N
light: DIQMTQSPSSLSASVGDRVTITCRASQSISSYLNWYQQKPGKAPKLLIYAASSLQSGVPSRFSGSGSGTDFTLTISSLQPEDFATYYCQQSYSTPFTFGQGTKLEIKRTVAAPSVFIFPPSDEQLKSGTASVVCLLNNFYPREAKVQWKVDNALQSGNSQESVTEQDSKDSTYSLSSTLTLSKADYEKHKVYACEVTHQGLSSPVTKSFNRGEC
- Kd (CD28-Fc-His protein [7]): 96 nM
- Kd (CD28-Fc-His protein [8]): 150 nM

B8: XENP34389 (bispecific antibody)
heavy 1: EVQLLESGGGLVQPGGSLRLSCAASGFTFSNYYMAWVRQAPGKGLEWVSSISTGGGSTYYRDSVKGRFTISRDNSKSTLYLQMNSLRAEDTAVYYCTTDLSAIAATPFAYWGQGTLVTVSSASTKGPSVFPLAPSSKSTSGGTAALGCLVKDYFPEPVTVSWNSGALTSGVHTFPAVLQSSGLYSLSSVVTVPSSSLGTQTYICNVNHKPSDTKVDKKVEPKSCDKTHTCPPCPAPPVAGPSVFLFPPKPKDTLMISRTPEVTCVVVDVKHEDPEVKFNWYVDGVEVHNAKTKPREEEYNSTYRVVSVLTVLHQDWLNGKEYKCKVSNKALPAPIEKTISKAKGQPREPQVYTLPPSREEMTKNQVSLTCDVSGFYPSDIAVEWESDGQPENNYKTTPPVLDSDGSFFLYSKLTVDKSRWEQGDVFSCSVMHEALHNHYTQKSLSLSPGK
heavy 2: not shown
light: DIQMTQSPSSLSASVGDRVTITCRASQNIYTSLAWYQQKPGKAPKLLIYNAHSLQTGIPSRFSGSGSGADFTLTISSLQPEDFATYFCQQYYSGLTFGSGTKLEIKRTVAAPSVFIFPPSDEQLKSGTASVVCLLNNFYPREAKVQWKVDNALQSGNSQESVTEQDSKDSTYSLSSTLTLSKADYEKHKVYACEVTHQGLSSPVTKSFNRGEC
- Kd (CD28-Fc-His protein [7]): 790 nM
- Kd (CD28-Fc-His protein [8]): 560 nM
